# Laboratory results taken from US20240343799A1 (Innovent, published 2024).
# T1: CD79b on the surface of B-cell non-Hodgkin's lymphoma cells (human, UniProt P40259 29-229)
# T1 construct: whole, on cells; Endogenous CD79b of the cell lines; on cells it stands in the B cell receptor complex with CD79a; also called CD79b on Ramos cells; CD79b on BJAB cells
# T1 sequence (looked up): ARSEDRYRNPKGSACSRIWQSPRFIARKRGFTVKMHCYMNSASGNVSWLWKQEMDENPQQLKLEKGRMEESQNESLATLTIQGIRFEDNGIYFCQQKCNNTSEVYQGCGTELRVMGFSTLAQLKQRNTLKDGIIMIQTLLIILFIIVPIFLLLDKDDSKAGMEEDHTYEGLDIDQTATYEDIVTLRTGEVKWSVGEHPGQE
# T2: human CD79b (recombinant antigen in the ForteBio assays) (human, UniProt P40259 29-159)
# T2 construct: the immunogen was CD79b protein from Sino, Cat #29750-H08H; also called huCD79b
# T2 sequence (looked up): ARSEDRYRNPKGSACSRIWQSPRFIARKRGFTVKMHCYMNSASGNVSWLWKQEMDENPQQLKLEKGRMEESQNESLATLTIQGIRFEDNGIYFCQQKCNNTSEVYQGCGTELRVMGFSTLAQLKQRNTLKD
# What was measured:
# [1] = target: T1, CD79b on the surface of B-cell …; assay: flow cytometry on Ramos cells, goat anti-human IgG PE
# Experimental: (§1) Ramos (ATCC, Cat #CRL-1596) and BJAB (AddexBio, USA, Cat #C0003016) were passaged according to the conventional procedures. Cells were counted after centrifugation and resuspension, adjusted to a density of 4×10⁶ cells/mL, poured into a loading tank, and seeded to a 96-well plate at 50 μL/well using a multichannel pipettor. 50 μL of the antibody sample diluted in gradient was added to the 50 μL of cells in each well, and the mixture was then incubated in an incubator at 5% CO₂ and 37° C. for 30 min. The mixture was centrifuged at 400 g for 5 min, then 200 μL of PBS was added, and the resulting mixture was centrifuged at 400 g for 5 min. This procedure was repeated 3 times. Goat anti-human IgG PE (1:200) was added, and the mixture was incubated for 30 min in the dark at room temperature. The mixture was washed with 200 μL of PBS twice, centrifuged, and then resuspended in 100 μL of PBS, and the values were read using a flow cytometer. The values were fitted to obtain a curve and EC₅₀ values were calculated.
# (§2) The binding of the humanized antibodies to Ramos and BJAB cells was detected by flow cytometry. The assay was the same as in Example 4. The binding of the humanized antibodies to CD79b on the surface of Ramos cells is shown in FIG. 3; the binding of the humanized antibodies to CD79b on the surface of BJAB cells is shown in FIG. 4.
# [2] = target: T2, human CD79b (recombinant antigen in the …); assay: BLI (ForteBio), antibody loaded on sensor, antigen in solution
# Experimental: (§3) Briefly, an AMQ (Pall, 1506091) sensor was equilibrated offline in an assay buffer for 30 min and then equilibrated online for 60 s to establish a baseline. The purified antibodies obtained as described above were each loaded online onto an AHQ sensor (ForteBio) for the ForteBio affinity assay. The sensor with the loaded antibody was then exposed to antigen CD79b before transferring the sensor to the assay buffer to measure the dissociation rate. The KD values were analyzed using ForteBio analysis software.
# The equilibrium dissociation constants (KD) for the binding of the humanized antibodies of the present invention to human CD79b were determined by ForteBio.
# [3] = target: T1, CD79b on the surface of B-cell …; assay: flow cytometry on BJAB cells, goat anti-human IgG PE
# Experimental: as §1, §2
# [4] = target: T2, human CD79b (recombinant antigen in the …); assay: BLI (ForteBio)
# [5] = target: T2, human CD79b (recombinant antigen in the …); assay: BLI (ForteBio), antibody loaded on sensor, antigen in solution; remark: listed apart in the source
# Experimental: The equilibrium dissociation constants (KD) for binding of the antibodies of the present invention to CD79b were determined by bio-layer interferometry (ForteBio). A ForteBio affinity assay of prior art was performed (Estep, P., et al., “High throughput solution Based measurement of antibody-antigen affinity and epitope binning”, MAbs, 2013.5 (2): 270-8).
# as §3
binder,measurement,setting,value
"hz38D9B3.11 (antibody, V domains shown, Humanized monospecific anti-CD79b antibody) VH: QVQLVQSGSELKKPGASVKVSCKASGYTFTDYSMHWVRQAPGQGLEWMGWINTETGEPSYADDFKGRFVFSLDTSVSTAYLQISSLKAEDTAVYYCYYGPYWGQGTLVTVSS VL: EIVLTQSPATLSLSPGERATLSCKASQSVDHDVDSYMDWYQQKPGQAPRLLIYSASNLESGIPARFSGSGSGTDFTLTISSLEPEDFAVYYCQQINEYPYTFGGGTKVEIK",EC50 (read off the curve),[1],~2 nM
same,Kd,[2],0.274 nM
same,EC50 (read off the curve),[3],~2 nM
"polmab (antibody, human IgG1, kappa, V domains shown) VH: EVQLVESGGGLVQPGGSLRLSCAASGYTFSSYWIEWVRQAPGKGLEWIGEILPGGGDTNYNEIFKGRATFSADTSKNTAYLQMNSLRAEDTAVYYCTRRVPIRLDYWGQGTLVTVSS VL: DIQLTQSPSSLSASVGDRVTITCKASQSVDYEGDSFLNWYQQKPGKAPKLLIYAASNLESGVPSRFSGSGSGTDFTLTISSLQPEDFATYYCQQSNEDPLTFGQGTKVEIKR",EC50 (read off the curve),[1],~3 nM
same,Kd,[2],12.7 nM
same,Kd,[4],13.7 nM
same,Kd,[5],12.7 nM
same,EC50 (read off the curve),[3],~2 nM
"hz34F1.14 (antibody, V domains shown) VH: QVQLVQSGAEVKKPGASVKVSCKASGYSFTTYWMNWVRQAPGQGLTWMGMIDPSDSETHYNHLFKDRVTMTVDKSTSTAYMELSSLRSEDTAVYYCTRAIGYWGQGTLVTVSS VL: DVVMTQSPLSLPVTLGQPASISCKSSLSLLDSEGKTYLNWFQQRPGQSPRPLISLVSKLDSGVPDRFSGSGSGTDFTLKISRVEAEDVGVYYCWQGTHFPLTFGGGTKVEIK",EC50 (read off the curve),[1],~20 nM
same,Kd,[2],2.53 nM
same,EC50 (read off the curve),[3],~10 nM
"hz11G10.9.p1 (antibody, V domains shown, Humanized monospecific anti-CD79b antibody; also called 11G10.9.01) VH: QVQLVQSGAEVKKPGASVKVSCKASGYTFTDYWVNWVRQAPGQGLEWMGMIDPSDSETHYNQMFNDRVTMTVDTSTSTVYMELSSLRSEDTAVYYCTRSNYYWGQGTLVTVSS VL: DIVMTQTPLSLSVTPGQPASISCKSSQSLLDSEGKTYLNWLLQKPGQSPQSLIYLVSKLDSGVPDRFSGSGSGTDFTLKISRVEAEDVGVYYCWQGTHFPLTFGGGTKVEIK",EC50 (read off the curve),[1],~5 nM
same,Kd,[2],1.35 nM
same,EC50 (read off the curve),[3],~4 nM
"A7v14b (antibody, V domains shown, also called CD79b.A7v14b) VH: EVQLVQSGAEVKKPGASVKVSCKASGYTFTTYYMNWVRQAPGQGLEWIGMIDPSDSETHYNQKFQGRATLTVDTSTSTAYLELSSLRSEDTAVYYCSRSLAFWGQGTLVTVSS VL: DIVMTQTPLSLPVTPGQPASISCKSSQSLLDSDGKTYLNWLLQKPGQSPQSLIYLVSKLDSGVPDRFSGSGSGTDFTLKISRVEAEDVGVYYCWQGTHFPQTFGQGTKVEIK",EC50 (read off the curve),[1],~4 nM
same,Kd,[2],1.84 nM
same,Kd,[5],1.84 nM
same,EC50 (read off the curve),[3],~3 nM
